Results from patent publication US7265215.

What was measured:
[1] = biological target: protein extracted from High-5 cells infected with wild-type baculovirus; assay: antigen dot blot, negative control extract of wild-type baculovirus infected High-5 cells, mAb 1:100
[2] = biological target: native envelope glycoprotein (Egp) on purified DEN-2 virus (dengue 2 virus) (UniProt P14340); assay: antigen dot blot, purified DEN-2 virus, mAb 1:100, 125I goat anti-mouse immunoglobulin
[3] = biological target: dengue 2 virus recombinant envelope glycoprotein (rEgp) expressed by baculovirus (dengue 2 virus (strain PR 159)) (UniProt P12823); assay: antigen dot blot, extract of infected High-5 cells, mAb 1:100, 125I goat anti-mouse immunoglobulin
[4] = biological target: protein expressed by the recombinant baculovirus clone containing DEN-2 prME genes (ACNPV-prME) (dengue 2 virus); assay: as above
[5] = biological target: dengue 2 virus recombinant envelope glycoprotein (rEgp) expressed by baculovirus (dengue 2 virus (strain PR 159)) (UniProt P12823); assay: particle fluorescence assay (PFCIA), FITC-labeled mAb on antigen-coated polystyrene beads, pH 5.0, lysate of cells infected with the E-protein recombinant baculovirus
[6] = biological target: native envelope glycoprotein (Egp) on purified DEN-2 virus (dengue 2 virus) (UniProt P14340); assay: particle fluorescence assay (PFCIA), FITC-labeled mAb on antigen-coated polystyrene beads, pH 5.0, purified DEN-2 virus
[7] = biological target: dengue 2 virus recombinant envelope glycoprotein (rEgp) expressed by baculovirus (dengue 2 virus (strain PR 159)) (UniProt P12823); assay: particle fluorescence assay (PFCIA), FITC-labeled mAb on antigen-coated polystyrene beads, pH 5.0, partially-purified recombinant E protein

Substance	Reactivity with antigen (cpm) [1]	Reactivity with antigen (cpm) [2]	Reactivity with antigen (cpm) [3]	Reactivity with antigen (cpm) [4]	Binding affinity [5]	Binding affinity [6]	Binding affinity [7]
monoclonal antibody 3H5	1400 cpm	7500 cpm	13600 cpm	10100 cpm			
monoclonal antibody 4G2	1000 cpm	16800 cpm	8500 cpm	5000 cpm	2.9e-06	1.3e-06	2.3e-06
